Experimental data as given in patent publication US5942663A, “Biocidal proteins” (Zeneca Limited, priority 1991, dated 1999).
Like-named read-outs stand apart in the source and are kept apart here. No end group written: not given here.

What was measured:
[1] = test system: Fusarium oxysporum f.sp. lycopersici; type: cell-based; details: 48 hours of incubation
[2] = test system: Pyrenophora tritici-repentis; type: cell-based; details: P tritici-repentis, 48 hours of incubation
[3] = Isoelectric focusing; type: physicochemical; details: isoelectric focusing on Immobiline Dry Strips
Protocol: PAS staining for glycoproteins was done by the method of Zacharius, RM et al (1969; Anal Biochem, 30, 148-152) using ovalbumin (3.2% carbohydrate) as a positive control sample. The pI values of Mj-AMP1 and Mj-AMP2 were determined by isoelectric focusing and found to be about 10.5 for both proteins. Isoelectric focussing was done on precast Immobiline Dry Strips (Pharmacia) using marker proteins in the pI range from 4.7 to 10.6 (Pharmacia).

[4] = test system: Fusarium culmorum; assay: Stability of the antifungal activity of the Mj-AMPs; type: cell-based
Protocol: Antifungal activity was measured by microspectrophotometry as previously described (Broekaert, WF et al; 1990; FEMS Microbiol Lett, 69, 55-60). Routinely, tests were performed with 20 μl of a (filter-sterilized) test solution and 80 μl of a fungal spore suspension (2×10^4 spores/ml) in half strength Potato Dextrose Broth (Difco). Control microcultures contained 20 μl of (sterile) distilled water and 80 μl of the fungal spore suspension. Unless otherwise stated the test organism was Fusarium culmorum and incubation was done at 25° C. for 48 hours. Percent growth inhibition is defined as 100 times the ratio of the corrected absorbance of the control microculture minus the corrected absorbance of the test microculture over the corrected absorbance at 595 nm of the control microculture. The corrected absorbance values equal the absorbance at 595 nm of the culture measured after 48 hours minus the absorbance at 595 nm measured after 30 min. Values of growth inhibition lower than 10% are not indicated on the chromatograms.
Table 1 summarises the results of further testing of the stability of the antifungal activity of the Mj-AMPs. Tests for antifungal activity were performed with 20 μl samples diluted five-fold with growth medium containing Fusarium culmorum spores (2×10^4 spores/ml), according to the assay method given in Example 2. Control samples contained either Mj-AMP1 at 500 μg/ml or Mj-AMP2 at 100 μg/ml in 10 mM sodium phosphate buffer (pH 7). Reduction was done by addition of DTT at 2.5 mM followed by incubation at 37° C. for 2 hours. pH stability was tested in the following buffers: 20 mM glycine-HCl (pH 2 and 3); 20 mM diethanolamine-HCl (pH 10); and 20 mM glycine-NaOH (pH 11). After 1 hour of incubation in the appropriate buffers the samples were dialyzed for 16 hours against 10 mm sodium phosphate buffer (pH 7). For digestions, proteases were added at 100 μg/ml and incubated at 37° C. for 16 hours.

[5] = test system: Cercospora beticola; assay: Foliar diseases in vivo test, protectant foliar spray; details: C beticola on sugarbeet, foliar spray 100 μg/ml
Protocol: The plants were grown in John Innes Potting Compost (No 1 or 2) in 4 cm diameter mini-pots. The protein preparation was formulated immediately prior to use by dissolving in sterile deionised water and diluting to the appropriate concentration. It is assumed that the protein extract contains approximately 1% active ingredient. A pure sample of Mj-AMP1 was similarly prepared. The formulations were applied to the plants as a foliar spray. The spray was applied to maximum discrete droplet retention. Tween 20, to give a final concentration of 0.05%, was added when the spray was applied to cereals. The protein preparation was applied to the foliage (by spraying) one or two days before the plant was inoculated with the disease (protectant application). […] After inoculation, the plants were put into an appropriate environment to allow infection to proceed and then incubated until the disease was ready for assessment. […]
Results are shown in Table 3 for the three fungal pathogens: Septoria nodorum (Fungi Imperfecti) tested on wheat, Plasmopara viticola (Phycomycete) tested on grapevine, and Cercospora beticola tested on sugarbeet. The disease control was recorded by the following grading: 4=no disease; 3=trace-5% of disease on untreated plants; 2=6-25% of disease on untreated plants; 1=26-60% of disease on untreated plants; 0=61-100% of disease on untreated plants.

[6] = test system: Alternaria brassicola; type: cell-based; details: A brassicola, 48 hours of incubation
[7] = test system: Nectria haematococca; type: cell-based; details: N haematococca, 48 hours of incubation
[8] = test system: Botrytis cinerea; type: cell-based; details: B cinerea, 48 hours of incubation
[9] = test system: Pyricularia oryzae; type: cell-based
[10] = test system: Sarcina lutea; assay: Antibacterial activity in vitro test; type: cell-based; details: S lutea, 48 hours
Protocol: (§1) The antibacterial activity of the Mj-AMPs was tested against a range of gram-positive and gram-negative bacteria: Bacillus megaterium, Sarcina lutea, Escherichia coli and Erwinia carotovora. β-purothionin and UDA were also tested for comparison (see Example 7). Tests were performed in soft agarose medium containing 1% tryptone and, with or without 1 mM CaCl2 and 50 mM KCl. Absorbance, 595 nm, of the culture was measured after 48 hours.

[11] = test system: Bacillus megaterium; assay: Antibacterial activity in vitro test; type: cell-based; details: B megaterium, 48 hours
Protocol: as §1

[12] = test system: Escherichia coli; assay: Antibacterial activity in vitro test; type: cell-based; details: E coli, 48 hours
Protocol: as §1

[13] = test system: Ascochyta pisi; type: cell-based; details: A pisi, 48 hours of incubation
[14] = test system: Colletotrichum lindemuthianum; type: cell-based; details: C lindemuthianum
[15] = test system: Venturia inaequalis; type: cell-based; details: V inaequalis, 10 days of incubation
[16] = MEDIUM +Ca/K (1 mM CaCl2 and 50 mM KCl)

## Mj-AMP1: antimicrobial protein from Mirabilis jalapa seeds, dimer of two 4 kDa subunits, 37 residues, SEQ ID NO:1 (QCIGNGGRCNENVGPPYCCSGFCLRQPGQGYGYCKNR; cysteine pairing not given here; also: homodimer)
[1]
  IC50: 200 µg/mL
[2]
  IC50: 300 µg/mL
[3]
  pI: about 10.5
[4]; 80° C., 10 min
  Relative antifungal activity (shown as % of control activity): 100 % of control activity
[4]; 90° C., 10 min
  Relative antifungal activity (shown as % of control activity): 100 % of control activity
[4]; 100° C., 10 min
  Relative antifungal activity (shown as % of control activity): 100 % of control activity
[4]; Chymotrypsin digestion, 100 μg/ml, 37° C., 16 hours
  Relative antifungal activity (shown as % of control activity): 12 % of control activity
[4]; Control: Mj-AMP1 500 μg/ml or Mj-AMP2 100 μg/ml in 10 mM sodium phosphate buffer pH 7
  Relative antifungal activity (shown as % of control activity): 100 % of control activity
[4]; Pronase E digestion, 100 μg/ml, 37° C., 16 hours
  Relative antifungal activity (shown as % of control activity): 50 % of control activity
[4]; Proteinase K digestion, 100 μg/ml, 37° C., 16 hours
  Relative antifungal activity (shown as % of control activity): 100 % of control activity
[4]; Reduction: DTT 2.5 mM, 37° C., 2 hours
  Relative antifungal activity (shown as % of control activity): < 6 % of control activity
[4]; Trypsin digestion, 100 μg/ml, 37° C., 16 hours
  Relative antifungal activity (shown as % of control activity): 75 % of control activity
[4]; chymotrypsin
  Sensitivity to protease (in words): sensitive
[4]; pH 2, 60 min
  Relative antifungal activity (shown as % of control activity): 100 % of control activity
[4]; pH 3, 60 min
  Relative antifungal activity (shown as % of control activity): 100 % of control activity
[4]; pH 10, 60 min
  Relative antifungal activity (shown as % of control activity): 100 % of control activity
[4]; pH 11, 60 min
  Relative antifungal activity (shown as % of control activity): 100 % of control activity
[4]; pronase E
  Sensitivity to protease (in words): resisted almost completely
[4]; proteinase K
  Sensitivity to protease (in words): resisted almost completely
[4]; trypsin
  Sensitivity to protease (in words): resisted almost completely
[5]
  Disease control grading: 3 (3=trace-5% of disease on untreated plants)
[6]
  IC50: 20 µg/mL
[7]
  IC50: 15 µg/mL
[8]
  IC50: 60 µg/mL
[9]
  IC50: 6 µg/mL
[10]; [16]
  IC50: > 500 µg/mL
[10]; MEDIUM -Ca/K
  IC50: 100 µg/mL
[11]; [16]
  IC50: 20 µg/mL
[11]; MEDIUM -Ca/K
  IC50: 6 µg/mL
[12]; [16]
  IC50: > 500 µg/mL
[12]; MEDIUM -Ca/K
  IC50: > 500 µg/mL
[13]
  IC50: 200 µg/mL
[14]; 48 hours of incubation
  IC50: 6 µg/mL
[14]; after 72 hours
  IC50: 12 µg/mL
[15]
  IC50: 12 µg/mL
